The chains are these.
B1: sdAb D2 (VHH)
VHH: DVQLQESGGGLVEAGGSLRLSCVASGRTFSGWSMGWFRQAPGKEREFVAAISWVGSWIGGTVYSNSVKGRFTISRDNARTTVYLQMNSLKPEDTAVYFCAAANSETPRIFASEYDYWGQGTQVTVS
B2: sdAb B2 (VHH)
VHH: QVQLVESGGGLVQAGGSLRLSCAVFGSTFSNNVADWYRQAPGKQRELVARISASGATREYGDSVKGRFTISRDDAKNTMYLQMNNLKPEDTAVYRCHKIEWEDLSRKDYWGQGTQVTVS
B3: sdAb D1 (VHH)
VHH: DVQLQESGGGLVQAGGSLRLSCAASGLTFSRCDMGWFRQAPGKEREFVARISANGASTHYADFVKGRFTISRDNAKNTVYLQMNYLKPEDTAVYICAAARVPVTWQLYDYWGQGTQVTVS
B4: sdAb B1 (VHH)
VHH: QVQLQESGGGLVQTGGSLRLSCAVHGRTFSNTGMGWFRQAPGNERQFVAIISPSGTSTYYADSVKGRFTISRDPAKNTVYLQMNSLKMDDTAVYYCAASYGSNWSTLRHQRRNEYDAWGQGTQVAVS
B5: sdAb B3 (VHH)
VHH: DVQLQESGGGLVQAGGSLRLSCAASGFIFRLAGMSWVRQAPGKGFEWVSGITMDGSTTNYADSVKGRFTISRDNSKNRLYLQMNSLKPEDTAVYYCARGAKGGYNDPRGQGTQVTVS
B6: sdAb F4 (VHH)
VHH: DVQLQESGGGLVQAGGSLRLSCAVSGLSFSSMGWFRQPPGKEREFVAAISLYSGSTYYADSVKGRFTISSDNAKSTVYLQMNSLKPEDAAVYFCAADRQRTWSTFYASRQATYNYWGQGTQVTVTS
B7: sdAb E2 (VHH)
VHH: DVQLQESGGGLVQAGGSLRLSCAASGRTISRYAVGWFRRPPAKEREFIGINWSGGSTTYADSAEGRFIISRDNAKNTVYLQMNSLKPEDTAVYYCAVPSVLVQGGISNPSQYDYWGQGTQVTVS
B8: F1A1(G4S)4 (bispecific antibody)
chain: DVQLQESGGGLVQAGGSLKLSCAASGGSLSRYDMGWFRQAPGKEREFVARISWSGTTKYYADAVKGRFAISRDNAKNTVYLQMNSLKPEDTAVYYCAAAFYGNRGYYDVNAYTSSGQGTQVTVSGGGGSGGGGSGGGGSGGGGSEVQLLESGGGLVQPGGSLRLSCAASGFTFGNYDMAWVRQAPGKRPEWVSSIDTGGDITHYADSVKGRFTISRDNAKNTLYLQMNSLRPEDTAVYWCATDEEYALGPNEFDYYGQGTLVTVS
B9: A1A1(G4S)4 (VHH)
chain: EVQLLESGGGLVQPGGSLRLSCAASGFTFGNYDMAWVRQAPGKRPEWVSSIDTGGDITHYADSVKGRFTISRDNAKNTLYLQMNSLRPEDTAVYWCATDEEYALGPNEFDYYGQGTLVTVSGGGGSGGGGSGGGGSGGGGSEVQLLESGGGLVQPGGSLRLSCAASGFTFGNYDMAWVRQAPGKRPEWVSSIDTGGDITHYADSVKGRFTISRDNAKNTLYLQMNSLRPEDTAVYWCATDEEYALGPNEFDYYGQGTLVTVS
notes: monospecific, bivalent control of two A1 linked by (G4S)4
B10: sdAb E3 (VHH)
VHH: DVQLQESGGGLVQAGGSLRLACAASGRTLSSYVVSWFRQAPGKERKFVAAITWSGLSTTYLDSVQGRFTISRDNTKDTVYLQMNSLKPQDTAIYYCAAGPNIPSILRTRESEYAYWGQGTQVTVS
B11: sdAb F3 (VHH)
VHH: DVQLQESGGGLVQAGGSLKLSCAASRGSLSRWDVAWFRQAPGKERSFVTRISWSGTTSYYADAVKGRFAISRDNAKNTVYLQMNSLKPEDTAVYYCAVALYGNRGYYDVNAHSYWGQGTQVTVS
B12: D2A1(G4S)4 (bispecific antibody)
chain: DVQLQESGGGLVEAGGSLRLSCVASGRTFSGWSMGWFRQAPGKEREFVAAISWVGSWIGGTVYSNSVKGRFTISRDNARTTVYLQMNSLKPEDTAVYFCAAANSETPRIFASEYDYWGQGTQVTVSGGGGSGGGGSGGGGSGGGGSEVQLLESGGGLVQPGGSLRLSCAASGFTFGNYDMAWVRQAPGKRPEWVSSIDTGGDITHYADSVKGRFTISRDNAKNTLYLQMNSLRPEDTAVYWCATDEEYALGPNEFDYYGQGTLVTVS
B13: sdAb E1 (VHH)
VHH: DVQLQESGGGLVQAGGSLRLSCLASGRTFTTTSGYNMGWFRQAPGKEREFVAGIKWVSGSNRAYAESVKGRFTISRDNAKNTVYLQMNSLKPEDTAVYYCAAATGQSYVPIREYEYVYWGQGTQVTVS
B14: A1D2(G4S)4 (bispecific antibody)
chain: EVQLLESGGGLVQPGGSLRLSCAASGFTFGNYDMAWVRQAPGKRPEWVSSIDTGGDITHYADSVKGRFTISRDNAKNTLYLQMNSLRPEDTAVYWCATDEEYALGPNEFDYYGQGTLVTVSGGGGSGGGGSGGGGSGGGGSDVQLQESGGGLVEAGGSLRLSCVASGRTFSGWSMGWFRQAPGKEREFVAAISWVGSWIGGTVYSNSVKGRFTISRDNARTTVYLQMNSLKPEDTAVYFCAAANSETPRIFASEYDYWGQGTQVTVS
B15: sdAb F1 (VHH)
VHH: DVQLQESGGGLVQAGGSLKLSCAASGGSLSRYDMGWFRQAPGKEREFVARISWSGTTKYYADAVKGRFAISRDNAKNTVYLQMNSLKPEDTAVYYCAAAFYGNRGYYDVNAYTSSGQGTQVTVS
B16: sdAb F5 (VHH)
VHH: DVQLQESGGGLVQPGGSLRLSCAASGSIFSIDIMGWYRQAPGKQRELVATMPEGNYINYADSVKGRLTLSRDKGKNTVYLQLNSLKPEDTAVYYCYGFGVREGRGNVYWGQGTQVTVS
B17: sdAb E4 (VHH)
VHH: DVQLQESGGGLVQPGGSLRLSCAASGFRFSNYAMRWYRQAPGKEREFVARISSTGFITRYTASVRDRFTISRDNDKNMMYLQLNKLTPQDTAHYYCNAESTDYWGQGTQVTVS
B18: sdAb G1 (VHH)
VHH: DVQLQESGGGLVQAGGSLRLSCAASGFIVSDNVMSWYRQAPGKQRDMVATIMLNGDTAHADSVKGRFTISRDHAKNTVYLQMNSLKPEDTAVYYCNARDSMLEPGRGAWGQGTLVTVS

T2 sequence (P01854 other isoform, or with tags, fused parts or gaps): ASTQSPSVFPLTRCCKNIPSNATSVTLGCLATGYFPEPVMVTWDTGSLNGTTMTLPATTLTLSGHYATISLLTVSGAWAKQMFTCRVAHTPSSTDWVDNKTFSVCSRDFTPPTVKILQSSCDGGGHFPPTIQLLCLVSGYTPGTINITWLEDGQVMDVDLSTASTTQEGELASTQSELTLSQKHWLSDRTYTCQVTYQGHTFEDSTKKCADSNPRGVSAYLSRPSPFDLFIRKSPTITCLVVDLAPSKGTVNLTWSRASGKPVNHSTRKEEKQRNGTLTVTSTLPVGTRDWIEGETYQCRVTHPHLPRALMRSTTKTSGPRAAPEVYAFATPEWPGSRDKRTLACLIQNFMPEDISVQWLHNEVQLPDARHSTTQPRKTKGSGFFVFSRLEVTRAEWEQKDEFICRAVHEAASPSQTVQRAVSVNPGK

The target in the first test is T1, biotinylated IgE Fc (UniProt P01854-1 104-428, biotinylated).
T1 construct: also called IgE Fc (made in-house ALK, Denmark)
T1 sequence (P01854 other isoform, or with tags, fused parts or gaps): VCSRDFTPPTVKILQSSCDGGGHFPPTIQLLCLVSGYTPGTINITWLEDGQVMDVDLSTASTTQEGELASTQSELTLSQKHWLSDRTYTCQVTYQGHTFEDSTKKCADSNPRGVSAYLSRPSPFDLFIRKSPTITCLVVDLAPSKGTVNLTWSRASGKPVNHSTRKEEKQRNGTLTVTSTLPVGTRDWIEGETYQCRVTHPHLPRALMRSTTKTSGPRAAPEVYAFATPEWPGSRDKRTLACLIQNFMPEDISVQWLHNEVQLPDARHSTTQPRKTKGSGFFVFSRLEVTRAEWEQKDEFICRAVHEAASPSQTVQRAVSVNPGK
The test can be described thus: BLI (Octet), IgE Fc on sensor, 1:1 fit. As to the method:
The biotinylated IgE Fc (made in-house ALK, Denmark) was immobilised on SAX (High precision streptavidin) sensors (FortéBIO) to max 1 nm. The association (240 s) and dissociation (600 s) were measured for the analytes in a serial dilution (from 10 nM to 0.37 nM). Data were subtracted to blank reference sensors exposed to the same serial analyte dilutions, aligned, and analysed in the Octet Data Analysis HT 11.1 Software (FortéBIO) using a 1:1 fitting model.
As a reminder, the Kd is the constant that tells how readily two partners part at equilibrium. Higher therefore signals lower affinity. A word on the koff: it is the rate constant with which the complex falls apart. Lower therefore signals slow dissociation. By kon is commonly meant the second-order rate constant of association. Low readings indicate slower complex formation, high ones faster complex formation. B1 came in with a Kd of 81 nM, a koff of 0.02 s⁻¹ and a kon of 240000 M⁻¹ s⁻¹.
B2 showed a Kd of 0.11 nM, a koff of 7.8e-05 s⁻¹ and a kon of 700000 M⁻¹ s⁻¹.
On to B3, for which the Kd is 3.2 nM, the koff was found to be 0.00045 s⁻¹ and the association rate constant (kon) stood at 140000 M⁻¹ s⁻¹.
In turn, B4 had a Kd of 65 nM, a koff of 0.049 s⁻¹ and a kon of 760000 M⁻¹ s⁻¹.
Regarding B5, the affinity, expressed as Kd, was 0.28 nM; the koff is 0.00025 s⁻¹; the kon worked out at 880000 M⁻¹ s⁻¹.

Another test has as its target T2, recombinant human IgE (human, UniProt P01854-1 1-428).
T2 construct: made in-house (ALK); preloaded on immobilised FcεRIα in the displacement ELISA
Nature of the test: IgE-FcεRIα displacement ELISA. In outline: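 Streptavidin-coated plates carried site-specifically biotinylated recombinant human FcεRIα, loaded with recombinant human IgE at 13 ng/ml. sdAbs in a pM–μM series were added for 1 h, and displaced IgE was washed off. Percent displacement was the signal reduction versus the no-sdAb control, giving EC50 and maximal effect.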
On the technique in general: In an ELISA, binding on a coated surface is turned into a signal by an enzyme label.
As for B6, the Max effect was less than 20%.
As usually defined, the EC50 is the concentration needed to bring the measured effect to its halfway point. As for B1, the EC50 was 10000 nM and the Max effect was determined as 50%.
As for B2, the Max effect is less than 20%.
For the molecule B7, the Max effect was 0%.
Take B8: the EC50 was found to be 4000 nM and the Max effect was greater than 95%.
As to B9, the EC50 worked out at 250 nM and the Max effect is 90%.
Regarding B3, the Max effect came to 0%.
B10: the Max effect was found to be 0%.
Same read-out and setting: in the case of B11 it was 0%.
Regarding B4, the EC50 amounted to 200 nM and the Max effect came to 65%.
B12: the EC50 turned out to be 8 nM and the Max effect is greater than 95%.
Regarding B13, the Max effect was less than 20%.
Regarding B14, the EC50 came to 10 nM and the Max effect was greater than 95%.
Regarding B15, the Max effect was 0%.
On to B5, for which the Max effect turned out to be 0%.
Regarding B16, the Max effect is 35%.

In another test the target is T3, IgE-Fc Cε3-4 (human, UniProt P01854-1 209-428, limits assumed).
T3 construct: domain: Cε3-Cε4; coated at 2 µg/mL in the ELISA; also called IgE-Fc Cε3-Cε4
T3 sequence (P01854 other isoform, or with tags, fused parts or gaps limits assumed): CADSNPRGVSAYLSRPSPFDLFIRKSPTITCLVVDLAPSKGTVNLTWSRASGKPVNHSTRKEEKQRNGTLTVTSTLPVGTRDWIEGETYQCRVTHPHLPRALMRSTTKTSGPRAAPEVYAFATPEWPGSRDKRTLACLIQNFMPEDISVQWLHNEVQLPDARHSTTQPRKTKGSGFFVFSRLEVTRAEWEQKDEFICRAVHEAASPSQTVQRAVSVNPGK
Nature of the test: ELISA, immobilised IgE-Fc Cε3-4. As to the method:
(§1) SdAb monomers of interest (table 1) and identified in example 2 were amplified from pNT plasmid by PCR and recloned in pET22b plasmid by SLICE cloning reaction. Thereby, a pelB signal sequence and a C-terminal his/HA tag were added to the sdAbs allowing for secretion into periplasmic space and subsequent purification and detection. SdAbs were expressed in E. coli Rosetta (DE3) cells using 2YT media. Expression was induced in early exponential phase with 0.5 mM IPTG and carried overnight at 20° C.-25° C. Purification of sdAbs from supernatant or supernatant+periplasmic extract was performed by IMAC using HisTrap excel column (Cytiva) as first step and by SEC with a Hiload 16-600 Superdex® 75 pg (Cytiva) column as second step. Size and purity of each sdAbs were evaluated on a 15% acrylamide SDS-PAGE. Then, immunoreactivity of sdAbs against immobilized IgE-Fc Cε2-4 and IgE-Fc Cε3-4 was analysed by ELISA. IgE-Fc were coated at 2 μg/mL overnight in a Nunc MaxiSorp plate (ThermoFisher). After blocking sdAbs were added at a 1:10 dilution in TBS and incubated 3h at room temperature. Detection was performed using a mouse anti-HA antibody (ThermoFisher) and an anti-mouse IgG AP conjugated (Sigma Aldrich).
With B6, the binding result is reported as “no binding”.
As for B1, the binding result is on record as “no binding”.
Same read-out and setting: the same measure for B2: “no binding”.
Consider B7, for which the binding result is reported as “no binding”.
Regarding B17, the binding result is reported as “no binding”.
Take B3: the binding result was “no binding”.
Turning to B10, the binding result is recorded as “no binding”.
Turning to B11, the binding result was “no binding”.
B4: the binding result is given as “no binding”.
The same measure, in the same setting: in the case of B13 it was “no binding”.
Turning to B15, the binding result is “no binding”.
Still for that read-out and setting: in the case of B5 it was “no binding”.
Turning to B16, the binding result is listed as “no binding”.

Another test has as its target T3, IgE-Fc Cε3-4. The test can be described thus: ELISA, immobilised IgE-Fc. How it is done:
as §1
Turning to B18, the binding result was “binds”.

For the next test, the target named is T4, IgE-Fc Cε2-4 (human, UniProt P01854-1 104-428, limits assumed).
T4 construct: domain: Cε2-Cε4; coated at 2 µg/mL in the ELISA; also called IgE-Fc Cε2-Cε4
The test can be described thus: ELISA, immobilised IgE-Fc. As to the method:
as §1
Take B17: the binding result is given as “binds”.
Consider B18, for which the binding result is “binds”.

(Values after patent US20250171562A1 (ALK ABELL, published 2025).)
